Measured values: patent US6646113

Molecular target: spliceosomal snRNP core Sm proteins, endogenous in cell extracts
Experiment: co-IP with Y12 from transfected 293T cells, Western blot

amount co-immunoprecipitated relative to wild-type SMN (fraction of wild type): 0.33
Substance: myc-tagged SMNΔC26 (from UniProt Q16637 1-268)
